# In US8361965B2, “Recombinant chimeric protein of neutrophil inhibitory factor and hirugen, and pharmaceutical composition thereof” (Lunan Pharmaceutical Group Corporation, priority 2008, dated 2013):
# Values joined by “and” are separate entries in the source; they are usually repeats but may differ in a detail not shown here. Identical values can stand only once. “Also recorded” adds a separate entry of the source. Like-named read-outs stand apart in the source and are kept apart here.
# B1: TNHH: recombinant chimeric protein of neutrophil inhibitory factor and hirugen, Met-NIF-GGGGG-FPRPGSGG-Hirugen (SEQ ID NO: 3), expressed in E. coli (protein)
# chain: MNEHNLRCPQNGTEMPGFNDSIRLQFLAMHNGYRSKLALGHISITEESESDDDDDFGFLPDFAPRASKMRYLEYDCEAEKSAYMSARNCSDSSSPPEGYDENKYIFENSNNISEAALKAMISWAKEAFNLNKTKEGEGVLYRSNHDISNFANLAWDAREKFGCAVVNCPLGEIDDETNHDGETYATTIHVVCHYPKINKTEGQPIYKVGTPCDDCSEYTKKADNTTSADPVCIPDDGVCFIGSKADYDSKEFYRFRELGGGGGFPRPGSGGNGDFEEIPEEYL
# modifications: N-terminal Met
# Experiments:
# leukocyte adhesion = assay: anti-leukocyte adhesion activity, in vitro comparative analysis; format: cell-based
# [1] = tested on: cerebral ischemia in rats subjected to middle cerebral artery occlusion; format: in vivo, Wistar rats; conditions: for behavioral score: full score 11
# Human fibrin = molecular target: T1, Human fibrin (Homo sapiens, UniProt P02671+P02675+P02679); assay: in vitro binding of TNHH to fibrin (SEC-HPLC); conditions: 37° C. 1 h
# T1 construct: Human fibrin (1 g/ampoule, F5386), Sigma company; purchased Sigma F5386
# T1 sequence (P02671 36-629 limits assumed): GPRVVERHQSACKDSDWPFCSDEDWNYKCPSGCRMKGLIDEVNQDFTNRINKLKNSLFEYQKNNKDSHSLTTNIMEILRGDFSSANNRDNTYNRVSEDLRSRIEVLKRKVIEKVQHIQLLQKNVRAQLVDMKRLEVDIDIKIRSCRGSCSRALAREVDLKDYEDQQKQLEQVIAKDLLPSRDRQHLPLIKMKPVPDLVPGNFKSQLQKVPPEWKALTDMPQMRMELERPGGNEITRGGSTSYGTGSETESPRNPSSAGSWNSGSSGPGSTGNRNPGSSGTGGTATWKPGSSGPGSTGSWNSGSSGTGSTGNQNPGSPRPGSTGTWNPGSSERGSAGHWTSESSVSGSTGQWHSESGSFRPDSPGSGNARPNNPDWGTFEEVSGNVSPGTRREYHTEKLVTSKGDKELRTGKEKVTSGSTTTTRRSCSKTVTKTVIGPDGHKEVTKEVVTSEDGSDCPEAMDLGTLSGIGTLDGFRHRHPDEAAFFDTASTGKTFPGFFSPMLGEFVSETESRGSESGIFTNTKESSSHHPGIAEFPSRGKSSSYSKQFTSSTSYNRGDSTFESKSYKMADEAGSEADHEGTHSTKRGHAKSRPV
# T1 sequence (P02675 45-491 limits assumed): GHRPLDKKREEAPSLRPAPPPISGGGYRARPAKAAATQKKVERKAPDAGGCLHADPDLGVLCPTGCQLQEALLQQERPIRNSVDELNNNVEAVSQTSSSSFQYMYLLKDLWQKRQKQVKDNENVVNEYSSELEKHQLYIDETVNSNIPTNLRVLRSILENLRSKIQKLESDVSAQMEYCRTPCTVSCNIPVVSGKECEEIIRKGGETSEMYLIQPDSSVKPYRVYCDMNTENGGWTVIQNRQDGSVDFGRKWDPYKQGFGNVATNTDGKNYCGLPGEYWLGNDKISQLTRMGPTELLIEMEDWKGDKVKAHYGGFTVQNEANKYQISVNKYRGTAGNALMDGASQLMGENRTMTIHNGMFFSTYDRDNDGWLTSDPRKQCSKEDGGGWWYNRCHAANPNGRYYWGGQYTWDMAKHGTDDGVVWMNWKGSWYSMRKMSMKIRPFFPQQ
# T1 sequence (P02679 27-437 isoform P02679-2 limits assumed): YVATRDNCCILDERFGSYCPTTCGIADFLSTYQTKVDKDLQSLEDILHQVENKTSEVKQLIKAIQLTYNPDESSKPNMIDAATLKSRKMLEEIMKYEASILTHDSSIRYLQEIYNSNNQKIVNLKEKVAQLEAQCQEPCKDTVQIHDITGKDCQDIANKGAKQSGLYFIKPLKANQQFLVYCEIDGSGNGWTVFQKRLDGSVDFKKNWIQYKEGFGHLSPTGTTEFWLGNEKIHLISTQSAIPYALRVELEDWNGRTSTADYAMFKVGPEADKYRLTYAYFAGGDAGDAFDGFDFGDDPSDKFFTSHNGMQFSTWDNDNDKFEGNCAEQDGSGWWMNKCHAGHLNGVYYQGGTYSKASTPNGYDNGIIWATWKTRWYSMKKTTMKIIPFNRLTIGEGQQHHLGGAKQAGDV
# Description: Weigh TNHH, dilute to 1.0 mg/ml with phosphate buffer solution, and is ready for use; Weight fibrin precisely, dissolve and dilute to 0.1 mg/ml with phosphate buffer solution, and is ready for use; Weigh thrombin, dissolve and dilute to 100 units/ml with phosphate buffer solution, which is ready for use.
# Following the below procedures, test materials were reacted at 37° C. for 1 h, and then analyzed under the following chromatographic conditions.
# (1) pipette test material solutions (20 μl for each), loading for analysis, and recording each retention time.
# (2) pipette fibrin and thrombin solutions (0.5 ml for each), mixing and reacting at 37° C. for 1 h, and loading 20 μl sample for analysis.
# (3) pipette TNHH and fibrin solutions (0.5 ml for each), mixing and reacting at 37° C. for 1 h, and loading 20 μl sample for analysis.
# (4) pipette TNHH and thrombin solutions (0.5 ml for each), mixing and reacting at 37° C. for 1 h, and loading 20 μl sample for analysis.
# (5) pipette TNHH and mixture of fibrin and thrombin solutions (0.5 ml for each), mixing and reacting at 37° C. for 1 h, and loading 20 μl sample for analysis.
# Flow rate 0.5 ml/min; detection wavelength: 214 nm, Column temperature: room temperature; chromatogram recording time: 25 min.
# [2] = tested on: focal cerebral ischemia-reperfusion injury in rats; format: in vivo, Sprague-Dawley (SD) rats
# [3] = M-1, TNHH 2.25 mg/kg i.v. (middle dose)
# [4] = M-1, TNHH 6.75 mg/kg i.v. (high dose)
# [5] = M-2, TNHH 2.25 mg/kg i.v. (middle dose)
# [6] = M-2, TNHH 6.75 mg/kg i.v. (high dose)
molecule,measurement,setting,value
B1,titer against leukocyte adhesion,leukocyte adhesion; TNHH 1.0 mg/ml,720 unit/ml
same,anti-leukocyte adhesion activity,leukocyte adhesion; in vitro,750 Unit/mg
same,behavioral score,"[1]; 2 mg/kg bid caudal vein, 4 h",6.5 ± 1.0
same,behavioral score,"[1]; 2 mg/kg bid caudal vein, 8 h",6.2 ± 1.2
same,behavioral score,"[1]; 2 mg/kg bid caudal vein, 24 h",5.8 ± 1.2
same,behavioral score,"[1]; 2 mg/kg bid caudal vein, 48 h",5.3 ± 0.5
same,behavioral score,"[1]; 2 mg/kg bid caudal vein, 72 h",5.0 ± 0.6
same,pathological section of brain (cerebral cortex nerve cells),"[1]; 2 mg/kg bid caudal vein, HE, compared with model group","least pathological changes; also recorded: more regular structural arrangements, a portion of deeply stained nucleus, and some cytoplasmic shrinkage or disappearance"
same,Cerebral infarction volume (%),[1]; 72 h,23.2 ± 5.4 %
same,binding with fibrin,Human fibrin,could bind with fibrin and thrombin
same,"Cerebral infarction volume (%), based on the total volume of the brain","[2]; M-1 (occlusion 1 h, reperfusion 48 h), TNHH 0.75 mg/kg i.v. (low dose)",19.93±12.40%
same,nervous symptom score,"[2]; M-1 (occlusion 1 h, reperfusion 48 h), TNHH 0.75 mg/kg i.v., 2 h",1.46 ± 0.58
same,"Decrease in percentage (%), compared with corresponding model group","[2]; M-1, TNHH 0.75 mg/kg i.v. (low dose)",10.54%
same,nervous symptom score,"[2]; M-1, TNHH 0.75 mg/kg i.v., 6 h",1.42 ± 0.60
same,nervous symptom score,"[2]; M-1, TNHH 0.75 mg/kg i.v., 12 h",1.42 ± 0.60
same,nervous symptom score,"[2]; M-1, TNHH 0.75 mg/kg i.v., 24 h",1.40 ± 0.43
same,nervous symptom score,"[2]; M-1, TNHH 0.75 mg/kg i.v., 48 h",1.36 ± 0.62
same,"Cerebral infarction volume (%), based on the total volume of the brain",[2]; [3],19.41±11.74%
same,"Decrease in percentage (%), compared with corresponding model group",[2]; [3],12.88%
same,nervous symptom score,"[2]; M-1, TNHH 2.25 mg/kg i.v., 2 h",1.47 ± 0.92
same,nervous symptom score,"[2]; M-1, TNHH 2.25 mg/kg i.v., 6 h",1.47 ± 0.92
same,nervous symptom score,"[2]; M-1, TNHH 2.25 mg/kg i.v., 12 h",1.37 ± 0.92
same,nervous symptom score,"[2]; M-1, TNHH 2.25 mg/kg i.v., 24 h",1.38 ± 0.41
same,nervous symptom score,"[2]; M-1, TNHH 2.25 mg/kg i.v., 48 h",1.30 ± 0.76
same,"Cerebral infarction volume (%), based on the total volume of the brain",[2]; [4],12.89±8.94%
same,"Decrease in percentage (%), compared with corresponding model group",[2]; [4],42.14% and 42.15** %
same,nervous symptom score,"[2]; M-1, TNHH 6.75 mg/kg i.v., 2 h",1.50 ± 0.58
same,nervous symptom score,"[2]; M-1, TNHH 6.75 mg/kg i.v., 6 h",1.50 ± 0.68
same,nervous symptom score,"[2]; M-1, TNHH 6.75 mg/kg i.v., 12 h",1.39 ± 0.65
same,nervous symptom score,"[2]; M-1, TNHH 6.75 mg/kg i.v., 24 h",1.20 ± 0.36
same,nervous symptom score,"[2]; M-1, TNHH 6.75 mg/kg i.v., 48 h",1.00 ± 0.42
same,"Cerebral infarction volume (%), based on the total volume of the brain","[2]; M-2 (occlusion 2 h, reperfusion 48 h), TNHH 0.75 mg/kg i.v. (low dose)",27.52±17.63% and 27.52 ± 7.63%
same,nervous symptom score,"[2]; M-2 (occlusion 2 h, reperfusion 48 h), TNHH 0.75 mg/kg i.v., 2 h",1.94 ± 0.56
same,"Decrease in percentage (%), compared with corresponding model group","[2]; M-2, TNHH 0.75 mg/kg i.v. (low dose)",3.63%
same,nervous symptom score,"[2]; M-2, TNHH 0.75 mg/kg i.v., 6 h",1.94 ± 0.56
same,nervous symptom score,"[2]; M-2, TNHH 0.75 mg/kg i.v., 12 h",1.94 ± 0.73
same,nervous symptom score,"[2]; M-2, TNHH 0.75 mg/kg i.v., 24 h",1.88 ± 0.64
same,nervous symptom score,"[2]; M-2, TNHH 0.75 mg/kg i.v., 48 h",1.86 ± 0.77
same,"Cerebral infarction volume (%), based on the total volume of the brain",[2]; [5],26.07±8.06%
same,"Decrease in percentage (%), compared with corresponding model group",[2]; [5],7.42%
same,nervous symptom score,"[2]; M-2, TNHH 2.25 mg/kg i.v., 2 h",1.81 ± 0.92
same,nervous symptom score,"[2]; M-2, TNHH 2.25 mg/kg i.v., 6 h",1.80 ± 0.92
same,nervous symptom score,"[2]; M-2, TNHH 2.25 mg/kg i.v., 12 h",1.79 ± 0.92
same,nervous symptom score,"[2]; M-2, TNHH 2.25 mg/kg i.v., 24 h",1.68 ± 0.41
same,nervous symptom score,"[2]; M-2, TNHH 2.25 mg/kg i.v., 48 h",1.67 ± 0.76
same,"Cerebral infarction volume (%), based on the total volume of the brain",[2]; [6],19.72±8.90% and 19.72 ± 5.90%
same,"Decrease in percentage (%), compared with corresponding model group",[2]; [6],29.97%
same,nervous symptom score,"[2]; M-2, TNHH 6.75 mg/kg i.v., 2 h",1.75 ± 0.52
same,nervous symptom score,"[2]; M-2, TNHH 6.75 mg/kg i.v., 6 h",1.75 ± 0.27
same,nervous symptom score,"[2]; M-2, TNHH 6.75 mg/kg i.v., 12 h",1.50 ± 0.45
same,nervous symptom score,"[2]; M-2, TNHH 6.75 mg/kg i.v., 24 h",1.37 ± 0.52
same,nervous symptom score,"[2]; M-2, TNHH 6.75 mg/kg i.v., 48 h",1.22 ± 0.38
